For the data set, the system named is Escherichia coli TOP10. Briefly: shrunken log2 fold change of peptide-encoding DNA abundance (4.5 h post-induction vs induction); higher = less antimicrobial activity (less host growth inhibition). To be noted: time post-induction: 4.5 h; library: site-saturation at positions 5, 18, 19, 20.
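Note: peptides expressed intracellularly from a pBAD plasmid library in pooled LB shake-flask culture, induced with 0.3% L-arabinose, DNA abundance read by NGS, three biological replicates, DESeq2 with apeglm shrinkage.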

With RRIRDRPPRLPRPRPRPYKVPRP, the “shrunken log2 fold change” value was -0.687.
With RRIRARPPRLPRPRPRPHLRPRP the figure was 0.325.
The result for RRIRLRPPRLPRPRPRPTKKPRP reads 0.12.
With RRIRNRPPRLPRPRPRPPFVPRP the figure was 0.164; with RRIRRRPPRLPRPRPRPRSWPRP, 0.648.
On to RRIRERPPRLPRPRPRPPHEPRP, for which the “shrunken log2 fold change” value is 0.731.
With RRIRMRPPRLPRPRPRPVVNPRP the figure was 0.0747; with RRIRSRPPRLPRPRPRPIDFPRP, -0.0652; with RRIRARPPRLPRPRPRPIHHPRP, -0.302.
With RRIRGRPPRLPRPRPRPVHSPRP the figure was 0.0124; with RRIRSRPPRLPRPRPRPRKPPRP, 0.0197; with RRIRGRPPRLPRPRPRPCKKPRP, 0.00863.
With RRIRERPPRLPRPRPRPKLGPRP the figure was 0.12; with RRIRWRPPRLPRPRPRPWDCPRP, -0.0326; with RRIRGRPPRLPRPRPRPMEAPRP, 1.27.
Regarding RRIRYRPPRLPRPRPRPQVDPRP, the “shrunken log2 fold change” value is -0.205.
In the case of RRIRTRPPRLPRPRPRPLYIPRP, the “shrunken log2 fold change” value was -0.998.
With RRIRGRPPRLPRPRPRPPNWPRP the figure was 0.862.
Take RRIRMRPPRLPRPRPRPRVCPRP: the “shrunken log2 fold change” value is 0.545.
With RRIRFRPPRLPRPRPRPECKPRP, the “shrunken log2 fold change” value is -0.0133.
The result for RRIRNRPPRLPRPRPRPTDCPRP reads -0.484; that for RRIRQRPPRLPRPRPRPLQDPRP, -0.0148; that for RRIRCRPPRLPRPRPRPQTAPRP, 0.225.
With RRIRFRPPRLPRPRPRPYRDPRP the figure was -0.0081; with RRIRVRPPRLPRPRPRPWIDPRP, -0.134; with RRIRCRPPRLPRPRPRPIQSPRP, 0.0164.
The result for RRIRPRPPRLPRPRPRPGTDPRP reads 0.119.
For the sequence RRIRQRPPRLPRPRPRPVRAPRP, the “shrunken log2 fold change” value is 0.38.
Consider RRIRHRPPRLPRPRPRPIDEPRP, for which the “shrunken log2 fold change” value came out at 0.142.
With RRIRVRPPRLPRPRPRPWWKPRP the figure was 0.0375; with RRIRYRPPRLPRPRPRPQTEPRP, 0.0019; with RRIRKRPPRLPRPRPRPRHYPRP, -0.0867.
With RRIRHRPPRLPRPRPRPNHEPRP the figure was -0.493.
RRIRKRPPRLPRPRPRPVNDPRP: the “shrunken log2 fold change” value amounted to 0.00208.
Consider RRIRARPPRLPRPRPRPIAQPRP, for which the “shrunken log2 fold change” value was 0.459.
The result for RRIRGRPPRLPRPRPRPMNSPRP reads 0.0334.
RRIRIRPPRLPRPRPRPGYQPRP: the “shrunken log2 fold change” value is -0.0481.
The result for RRIRPRPPRLPRPRPRPMPYPRP reads -0.41.
The result for RRIRKRPPRLPRPRPRPGPPPRP reads 0.922; that for RRIRVRPPRLPRPRPRPWVIPRP, -0.43.
The result for RRIRLRPPRLPRPRPRPGNYPRP reads 0.0343; that for RRIRFRPPRLPRPRPRPFCAPRP, -0.102; that for RRIRTRPPRLPRPRPRPGPCPRP, 0.219.
In the case of RRIRGRPPRLPRPRPRPRWMPRP, the “shrunken log2 fold change” value turned out to be 0.297.
With RRIRYRPPRLPRPRPRPCNFPRP the figure was -0.303; with RRIRRRPPRLPRPRPRPAANPRP, 3.
With RRIRNRPPRLPRPRPRPGPNPRP the figure was 0.0126.
The result for RRIRGRPPRLPRPRPRPLVQPRP reads 0.802.
Regarding RRIRHRPPRLPRPRPRPCYFPRP, the “shrunken log2 fold change” value was -0.117.
In the case of RRIRSRPPRLPRPRPRPSECPRP, the “shrunken log2 fold change” value was -0.211.
With RRIRKRPPRLPRPRPRPASEPRP the figure was 0.879.
With RRIRFRPPRLPRPRPRPDFQPRP the figure was -0.546; with RRIRVRPPRLPRPRPRPQDQPRP, 0.225; with RRIRQRPPRLPRPRPRPMPIPRP, 0.0245.
With RRIRMRPPRLPRPRPRPNPKPRP the figure was 0.023; with RRIRNRPPRLPRPRPRPLLTPRP, -0.046.
For the sequence RRIRRRPPRLPRPRPRPVVAPRP, the “shrunken log2 fold change” value is 0.43.
The result for RRIRCRPPRLPRPRPRPQGKPRP reads -0.145; that for RRIRDRPPRLPRPRPRPYPWPRP, -0.136.
The result for RRIRLRPPRLPRPRPRPTTHPRP reads -0.102; that for RRIRHRPPRLPRPRPRPMSNPRP, 0.00049; that for RRIRFRPPRLPRPRPRPVTKPRP, 0.19.
The result for RRIRVRPPRLPRPRPRPDDGPRP reads 0.0292; that for RRIRDRPPRLPRPRPRPSNYPRP, -0.29.
On to RRIRERPPRLPRPRPRPCVCPRP, for which the “shrunken log2 fold change” value is -0.132.
The result for RRIRVRPPRLPRPRPRPTPCPRP reads -0.147; that for RRIRERPPRLPRPRPRPSDAPRP, -0.0474.
Turning to RRIRHRPPRLPRPRPRPRTRPRP, the “shrunken log2 fold change” value is 0.476.
With RRIRDRPPRLPRPRPRPWLHPRP the figure was -0.00955; with RRIRERPPRLPRPRPRPLKRPRP, -0.28.
With RRIRTRPPRLPRPRPRPGLYPRP the figure was 0.194; with RRIRERPPRLPRPRPRPAVWPRP, 0.421; with RRIRYRPPRLPRPRPRPFLFPRP, -0.704.
With RRIRPRPPRLPRPRPRPHESPRP the figure was 0.0891.
Consider RRIRPRPPRLPRPRPRPQCQPRP, for which the “shrunken log2 fold change” value worked out at 0.00656.
Consider RRIRFRPPRLPRPRPRPLKMPRP, for which the “shrunken log2 fold change” value was -0.428.
Turning to RRIRWRPPRLPRPRPRPRMKPRP, the “shrunken log2 fold change” value came out at 0.158.
Consider RRIRQRPPRLPRPRPRPRLYPRP, for which the “shrunken log2 fold change” value was determined as 0.0786.
The result for RRIRKRPPRLPRPRPRPYKGPRP reads -0.185; that for RRIRSRPPRLPRPRPRPWNKPRP, -0.0158.
As to RRIRVRPPRLPRPRPRPEALPRP, the “shrunken log2 fold change” value was -0.00459.
The result for RRIRGRPPRLPRPRPRPQDTPRP reads 0.0614.
With RRIRHRPPRLPRPRPRPVLYPRP the figure was -0.317.
The result for RRIRTRPPRLPRPRPRPMMLPRP reads 0.00466.
RRIRCRPPRLPRPRPRPFWSPRP: the “shrunken log2 fold change” value is -0.331.
With RRIRTRPPRLPRPRPRPCTDPRP the figure was -0.502; with RRIRMRPPRLPRPRPRPIKHPRP, -0.0825; with RRIRERPPRLPRPRPRPCQDPRP, -0.534.
Take RRIRLRPPRLPRPRPRPFECPRP: the “shrunken log2 fold change” value was -0.345.
The result for RRIRERPPRLPRPRPRPRFAPRP reads 0.0577.
With RRIRRRPPRLPRPRPRPMSSPRP the figure was -0.00615; with RRIRSRPPRLPRPRPRPEETPRP, -0.00674.
The result for RRIRTRPPRLPRPRPRPESAPRP reads 0.0458; that for RRIRMRPPRLPRPRPRPHFYPRP, -0.115; that for RRIRKRPPRLPRPRPRPAHKPRP, 0.0404.
On to RRIRKRPPRLPRPRPRPPDKPRP, for which the “shrunken log2 fold change” value was 0.474.
Consider RRIRPRPPRLPRPRPRPGCNPRP, for which the “shrunken log2 fold change” value is -0.124.
With RRIRERPPRLPRPRPRPWLMPRP the figure was -0.282.
The result for RRIRSRPPRLPRPRPRPSRIPRP reads -0.106.
With RRIRSRPPRLPRPRPRPFPSPRP the figure was -0.168.
In the case of RRIRVRPPRLPRPRPRPFVKPRP, the “shrunken log2 fold change” value is -0.199.
With RRIRNRPPRLPRPRPRPGRCPRP the figure was 0.143; with RRIRPRPPRLPRPRPRPGLFPRP, 0.162; with RRIRERPPRLPRPRPRPSKRPRP, -0.00769.
The result for RRIRDRPPRLPRPRPRPTYWPRP reads 0.01.
With RRIRCRPPRLPRPRPRPQGIPRP the figure was 0.158; with RRIRGRPPRLPRPRPRPAIGPRP, 0.591.
As to RRIRARPPRLPRPRPRPQVSPRP, the “shrunken log2 fold change” value was -0.156.
The result for RRIRLRPPRLPRPRPRPPHHPRP reads 0.253.
With RRIRVRPPRLPRPRPRPFATPRP the figure was 0.276.
With RRIRPRPPRLPRPRPRPIHVPRP the figure was -0.351.
As for RRIRNRPPRLPRPRPRPTKGPRP, the “shrunken log2 fold change” value stood at 0.0423.
The result for RRIRLRPPRLPRPRPRPDICPRP reads -0.102; that for RRIRIRPPRLPRPRPRPKPMPRP, -0.0736; that for RRIRFRPPRLPRPRPRPQNVPRP, -0.16.
Take RRIRGRPPRLPRPRPRPTQIPRP: the “shrunken log2 fold change” value is 1.38.
With RRIRRRPPRLPRPRPRPPRSPRP the figure was 0.904; with RRIRFRPPRLPRPRPRPWVPPRP, 0.0548; with RRIRARPPRLPRPRPRPLVGPRP, 0.321.
Consider RRIRFRPPRLPRPRPRPGTMPRP, for which the “shrunken log2 fold change” value was -0.494.
With RRIRDRPPRLPRPRPRPDDVPRP the figure was 0.276.
With RRIRCRPPRLPRPRPRPDGRPRP the figure was 0.00474; with RRIRDRPPRLPRPRPRPIRIPRP, -0.0935; with RRIRNRPPRLPRPRPRPFHVPRP, -0.128.
The result for RRIRRRPPRLPRPRPRPPMSPRP reads 0.142.

The values above are taken from the supplement of paper PMC9112550, “Optimization of the antimicrobial peptide Bac7 by deep mutational scanning” (BMC Biology, 2022).
